Test results as given in patent publication US8840891 (RSR, dated 2014).

Legend:
[1] = target: human TSHR, wild type, expressed on CHO cells (human) (UniProt P16473); experiment: cell-based or functional assay
[2] = target: human TSHR (wild type) expressed in CHO cells (human) (UniProt P16473); experiment: cell-based or functional assay
[3] = target: human TSHR (wild type) expressed in CHO cells (human) (UniProt P16473); experiment: cell-based or functional assay; remark: listed apart in the source
[4] = target: human TSHR expressed on CHO cells (human) (UniProt P16473); experiment: cell-based or functional assay
[5] = target: wild type human TSHR (human) (UniProt P16473); experiment: cell-based or functional assay
TSHR coated onto tubes [6] = target: T1, TSHR coated onto tubes (human, UniProt P16473 21-764, limits assumed); experiment: TSHR coated tubes, competitor 125I-5C9 IgG
T1 construct: whole entry named; also called TSHR coated tubes; thyrotropin receptor

TSHR coated onto tubes [7] = target: T1, TSHR coated onto tubes; experiment: TSHR coated tubes, competitor 125I-M22 IgG
TSHR coated onto tubes [8] = target: T1, TSHR coated onto tubes; experiment: TSHR coated tubes, competitor 125I-TSH

B1: 5C9 Fab (Fab, from another filing, V domains shown)
VH: EVQLVESGGGLIQPGGSLRLSCAASGFTVSSNYMSWVRQAPGKGLEWVSVTYSGGSTSYADSVKGRFTISRDNSKNTLYLQMNSLRAEDTAVYYCARGGRYCSSISCYARSGCDYWGQGTLVTVSS
VL: AIQMTQSPSSLSASVGDRVTITCRASQSISNYLNWYQQKPGKAPKLLIYAASSLQSGVPSRFSGSGSGTDFTLTISSLQPEDFATYYCQQSYSSPSTTFGQGTKLEIK
[1]
  % inhibition of basal cyclic AMP production; Exp 3; 5C9 F(ab′) 0.001 µg/mL: 3%
  % inhibition of basal cyclic AMP production; Exp 3; 5C9 F(ab′) 0.1 µg/mL: 19%
  % inhibition of basal cyclic AMP production; Exp 3; 5C9 F(ab′) 1 µg/mL: 23%
  % inhibition of basal cyclic AMP production; Exp 3; 5C9 F(ab′) 10 µg/mL: 39%
  % inhibition of basal cyclic AMP production; Exp 3; 5C9 F(ab′) 100 µg/mL: 48%
  % inhibition of basal cyclic AMP production; Exp 3; 5C9 Fab 0.1 µg/mL: 11%
  % inhibition of basal cyclic AMP production; Exp 3; 5C9 Fab 1 µg/mL: 39%
  % inhibition of basal cyclic AMP production; Exp 3; 5C9 Fab 10 µg/mL: 46%
  % inhibition of basal cyclic AMP production; Exp 3; 5C9 Fab 100 µg/mL: 61%
[2]
  cyclic AMP; Example 1; 5C9 Fab 10 µg/mL + TSH (fmol/cell well): 1280
  cyclic AMP; Example 1; 5C9 Fab 100 µg/mL + TSH (fmol/cell well): 938
  cyclic AMP; Example 1; 5C9 Fab 100 µg/mL only (fmol/cell well): 235
  cyclic AMP; Example 2; 5C9 Fab 10 µg/mL + TSH (fmol/cell well): 4130
  cyclic AMP; Example 2; 5C9 Fab 100 µg/mL + TSH (fmol/cell well): 867
  cyclic AMP; Example 2; 5C9 Fab 100 µg/mL only (fmol/cell well): 212

B2: 9D33 IgG (antibody, V domains shown)
VH: DVQIQQPGTELVKPGASVRLSCKASGYTFTTYWMHWVKQRPGQGLEWIGEIDPSDSYTNYNQKFKGKATLTVDKSSSTAYMHLSSLTSEDSAVYYCSRNYGSGYYFDYWGQGTTLTVSS
VL: GVEMTQSPAIMSASPGEKVTMTCSASSSVSYMHWYQQKSGTSPKRWIYDTSKLASGVPARFSGSGSGTSYSLTISSMETEDAATYYCQQWSSNPWTFGGGTKLEIK
[3]
  cyclic AMP production; 9D33 IgG 100 µg/mL + M22 Fab 3 ng/mL (fmol/cell well): 1050
  cyclic AMP production; 9D33 IgG 100 µg/mL + pTSH 3 ng/mL (fmol/cell well): 2220
  cyclic AMP production; 9D33 IgG 100 µg/mL only (fmol/cell well): 626
[4]
  Cyclic AMP, serum T1 + 0.001 µg/mL 9D33 IgG (fmol/cell well): 21600
  Cyclic AMP, serum T1 + 0.01 µg/mL 9D33 IgG (fmol/cell well): 19900
  Cyclic AMP, serum T1 + 0.1 µg/mL 9D33 IgG (fmol/cell well): 17900
  Cyclic AMP, serum T1 + 1 µg/mL 9D33 IgG (fmol/cell well): 4990
  Cyclic AMP, serum T1 + 10 µg/mL 9D33 IgG (fmol/cell well): 1460
  Cyclic AMP, serum T3 + 0.001 µg/mL 9D33 IgG (fmol/cell well): 12200
  Cyclic AMP, serum T3 + 0.01 µg/mL 9D33 IgG (fmol/cell well): 12200
  Cyclic AMP, serum T3 + 0.1 µg/mL 9D33 IgG (fmol/cell well): 12000
  Cyclic AMP, serum T3 + 1 µg/mL 9D33 IgG (fmol/cell well): 7380
  Cyclic AMP, serum T3 + 10 µg/mL 9D33 IgG (fmol/cell well): 4260
  Cyclic AMP, serum T6 + 0.001 µg/mL 9D33 IgG (single determination) (fmol/cell well): 10300
  Cyclic AMP, serum T6 + 0.01 µg/mL 9D33 IgG (fmol/cell well): 10300
  Cyclic AMP, serum T6 + 0.1 µg/mL 9D33 IgG (fmol/cell well): 8700
  Cyclic AMP, serum T6 + 1 µg/mL 9D33 IgG (fmol/cell well): 5450
  Cyclic AMP, serum T6 + 10 µg/mL 9D33 IgG (fmol/cell well): 2260
  Cyclic AMP, serum T19 + 0.001 µg/mL 9D33 IgG (fmol/cell well): 7090
  Cyclic AMP, serum T19 + 0.01 µg/mL 9D33 IgG (mean of duplicate) (fmol/cell well): 5760
  Cyclic AMP, serum T19 + 0.1 µg/mL 9D33 IgG (mean of duplicate) (fmol/cell well): 2390
  Cyclic AMP, serum T19 + 1 µg/mL 9D33 IgG (fmol/cell well): 404
  Cyclic AMP, serum T19 + 10 µg/mL 9D33 IgG (fmol/cell well): 448
  Cyclic AMP, serum T20 + 0.001 µg/mL 9D33 IgG (fmol/cell well): 7510
  Cyclic AMP, serum T20 + 0.01 µg/mL 9D33 IgG (fmol/cell well): 5390
  Cyclic AMP, serum T20 + 0.1 µg/mL 9D33 IgG (fmol/cell well): 5360
  Cyclic AMP, serum T20 + 1 µg/mL 9D33 IgG (mean of duplicate) (fmol/cell well): 980
  Cyclic AMP, serum T20 + 10 µg/mL 9D33 IgG (fmol/cell well): 204
[5]
  cyclic AMP; 100 µg/mL 9D33 IgG only (fmol/cell well): 534
  cyclic AMP; T21 + 0.001 µg/mL 9D33 IgG (fmol/cell well): 10200
  cyclic AMP; T21 + 0.01 µg/mL 9D33 IgG (fmol/cell well): 10800
  cyclic AMP; T21 + 0.1 µg/mL 9D33 IgG (fmol/cell well): 8720
  cyclic AMP; T21 + 1 µg/mL 9D33 IgG (fmol/cell well): 1380
  cyclic AMP; T21 + 10 µg/mL 9D33 IgG (fmol/cell well): 605
  cyclic AMP; T21 + 100 µg/mL 9D33 IgG (fmol/cell well): 442
TSHR coated onto tubes [6]
  % inhib of 125I-5C9 IgG binding at 0.01 µg/mL: 13%
  % inhib of 125I-5C9 IgG binding at 0.1 µg/mL: 29%
  % inhib of 125I-5C9 IgG binding at 1 µg/mL: 48%
  % inhib of 125I-5C9 IgG binding at 10 µg/mL: 60%
  % inhib of 125I-5C9 IgG binding at 100 µg/mL: 70%
TSHR coated onto tubes [7]
  % inhib of 125I-M22 IgG binding at 0.01 µg/mL: 13%
  % inhib of 125I-M22 IgG binding at 0.1 µg/mL: 27%
  % inhib of 125I-M22 IgG binding at 1 µg/mL: 48%
  % inhib of 125I-M22 IgG binding at 10 µg/mL: 60%
  % inhib of 125I-M22 IgG binding at 100 µg/mL: 61%
TSHR coated onto tubes [8]
  % inhib of 125I-TSH binding at 0.01 µg/mL: 8%
  % inhib of 125I-TSH binding at 0.1 µg/mL: 31%
  % inhib of 125I-TSH binding at 1 µg/mL: 55%
  % inhib of 125I-TSH binding at 10 µg/mL: 65%
  % inhib of 125I-TSH binding at 100 µg/mL: 69%

B3: 14D3 IgG (antibody, V domains shown)
VH: DVQMQQPGPELVKPGASLKMSCKASGYSFTGYNMHWVKQSHGKSLEWIGYIDPYSGATSYNQKFEGKATLTVDKSSSTAYMQLNSLTSEDSAVYYCARRWDWDPYAMDYWGQGTSVTVSS
VL: NILMTQSPAILSVSPGERVSFACRASQSIGTSIHWYQQRTNGSPRLLIKYASESISGIPSRFSGSGSGTDFTLSINSVESEDIADYYCQQTNRWPLTFGAGTKLELKR
TSHR coated onto tubes [6]
  % inhib of 125I-5C9 IgG binding at 0.01 µg/mL: 1%
  % inhib of 125I-5C9 IgG binding at 0.1 µg/mL: 10%
  % inhib of 125I-5C9 IgG binding at 1 µg/mL: 35%
  % inhib of 125I-5C9 IgG binding at 10 µg/mL: 50.5%
  % inhib of 125I-5C9 IgG binding at 100 µg/mL: 63%
TSHR coated onto tubes [7]
  % inhib of 125I-M22 IgG binding at 0.01 µg/mL: 3%
  % inhib of 125I-M22 IgG binding at 0.1 µg/mL: 15%
  % inhib of 125I-M22 IgG binding at 1 µg/mL: 37%
  % inhib of 125I-M22 IgG binding at 10 µg/mL: 60%
  % inhib of 125I-M22 IgG binding at 100 µg/mL: 62%
TSHR coated onto tubes [8]
  % inhib of 125I-TSH binding at 0.01 µg/mL: 4%
  % inhib of 125I-TSH binding at 0.1 µg/mL: 12.5%
  % inhib of 125I-TSH binding at 1 µg/mL: 37%
  % inhib of 125I-TSH binding at 10 µg/mL: 52%
  % inhib of 125I-TSH binding at 100 µg/mL: 57%
